According to patent US20120093826A1:
Positions count from the first letter of the chain named. One block for each molecule: values may come before it.

What was measured:
[1] = target: human CADM1 (cell surface, on CADM1-expressing human tumour cells and tissues) (human) (UniProt Q9BY67); assay: cell-based or functional assay
[2] = target: human CADM1 (cell surface, on CADM1-expressing human tumour cells and tissues) (human) (UniProt Q9BY67); assay: flow cytometry histogram on 786-0 cells, isotype control
[3] = target: human CADM1 (cell surface, on CADM1-expressing human tumour cells and tissues) (human) (UniProt Q9BY67); assay: flow cytometry histogram on SKMEL28 cells, isotype control
[4] = target: human CADM1 (cell surface, on CADM1-expressing human tumour cells and tissues) (human) (UniProt Q9BY67); assay: flow cytometry on NCI-H69 cells expressing human CADM1
[5] = target: human CADM1 (cell surface, on CADM1-expressing human tumour cells and tissues) (human) (UniProt Q9BY67); assay: flow cytometry histogram on 786-0 cells
[6] = target: human CADM1 (cell surface, on CADM1-expressing human tumour cells and tissues) (human) (UniProt Q9BY67); assay: flow cytometry histogram on SKMEL28 cells
[7] = target: human CADM1 (cell surface, on CADM1-expressing human tumour cells and tissues) (human) (UniProt Q9BY67); assay: flow cytometry (FGMI) titration on SkMel28 melanoma cells; table under the plot
[8] = target: human CADM1 (cell surface, on CADM1-expressing human tumour cells and tissues) (human) (UniProt Q9BY67); assay: flow cytometry (FACS Geomean) titration on A549 non-small cell lung cancer cells
[9] = target: human CADM1 (cell surface, on CADM1-expressing human tumour cells and tissues) (human) (UniProt Q9BY67); assay: flow cytometry (FGMI) titration on 786-O renal cell carcinoma cells; table under the plot
[10] = target: human CADM1 (cell surface, on CADM1-expressing human tumour cells and tissues) (human) (UniProt Q9BY67); assay: flow cytometry (FACS Geomean) titration on SKOV3 ovarian cancer cells; the table under the plot prints no unit, nM is the unit of the x axis 'Ab conc in nM'
[11] = target: human CADM1 (cell surface, on CADM1-expressing human tumour cells and tissues) (human) (UniProt Q9BY67); assay: flow cytometry (FACS Geomean) titration on A549 non-small cell lung cancer cells; the table under the plot prints no unit, nM is the unit of the x axis 'Ab conc in nM'

Chain of UniProt Q9BY67 (Q9BY67 45-442): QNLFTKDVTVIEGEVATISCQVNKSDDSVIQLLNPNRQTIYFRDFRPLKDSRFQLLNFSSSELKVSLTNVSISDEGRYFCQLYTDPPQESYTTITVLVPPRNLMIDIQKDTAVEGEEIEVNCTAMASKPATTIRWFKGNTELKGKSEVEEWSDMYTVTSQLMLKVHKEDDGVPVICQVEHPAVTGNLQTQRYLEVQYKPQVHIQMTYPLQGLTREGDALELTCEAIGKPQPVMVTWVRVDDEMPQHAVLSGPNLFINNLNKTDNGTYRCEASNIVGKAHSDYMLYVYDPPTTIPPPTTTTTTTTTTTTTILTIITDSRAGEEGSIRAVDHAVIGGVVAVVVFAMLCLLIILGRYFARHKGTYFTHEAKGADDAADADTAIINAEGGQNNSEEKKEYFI

% Specific Lysis: DMS79 (ADCC) [1]: 2.96%
% Specific Lysis: NCI-H69 (ADCC) [1]: 3.3%
number in the histogram legend box (name not given; axis FL2-H) [2]: 8.39
number in the histogram legend box (name not given; axis FL2-H) [3]: 10.5
Molecule: Isotype Control (antibody)

% Specific Lysis: DMS79 (ADCC) [1]: 37.8%
% Specific Lysis: NCI-H69 (ADCC) [1]: 24.6%
EC50 [4]: 0.588 nM
B1: PTA021_A1 human monoclonal antibody (antibody, V domains shown)
VH: QITLKESGPTLVKPTQTLTLTCTFSGFSLNTSGVGVGWIRQPPGKALEWLALIYWDDDKRYSPSLKSRLTITKDTSKNQVVLTMTNMDPVDTATYYCAHRRVEWVALAGNWFDPWGQGTLVTVSS
VL: DIQMTQSPSSLSASVGDRVTITCRASQGISSWLAWYQQKPEKAPKSLIYGASSLQSGVPSRFSGSGSGTDFTLTISNLQPEDFATYYCQQYNSYPLTFGGGTKVEIK

% Specific Lysis: DMS79 (ADCC) [1]: 61%
% Specific Lysis: NCI-H69 (ADCC) [1]: 29.8%
number in the histogram legend box (name not given; axis FL2-H) [5]: 42.6
number in the histogram legend box (name not given; axis FL2-H) [6]: 25.9
EC50 [4]: 0.674 nM
EC50 [7]: 4.42 nM
EC50 (read off the curve) [8]: 4 nM
EC50 [9]: 3.25 nM
EC50 [10]: 12.6 nM
EC50 [11]: 3.65 nM
B2: PTA021_A3 human monoclonal antibody (antibody, V domains shown)
VH: B1 VH with N30S, A106T
VL: B1 VL with G50A

% Specific Lysis: DMS79 (ADCC) [1]: 34.7%
% Specific Lysis: NCI-H69 (ADCC) [1]: 15.9%
EC50 [4]: 0.667 nM
B3: PTA021_A2 human monoclonal antibody (antibody, V domains shown)
VH: B1 VH with N30S, T94I, V105F, T119S
VL: B1 VL with G50A, N77S
